Results published in patent US20260049148A1, “PROTEASE-CLEAVABLE MOIETIES AND METHODS OF USE THEREOF” (CytomX Therapeutics, Inc., priority 2022, published 2026).
Square brackets hold non-standard residues; d marks the D form. Ends that are not written are not given here. * marks the point of attachment. Dnp = O=[N+]([O-])c1ccc(*)c([N+](=O)[O-])c1; Mca = COc1ccc2c(CC(=O)*)cc(=O)oc2c1

How the values were obtained:
Assay in all cases: Internally quenched peptide probe cleavage assay
Type in all cases: biochemical
Details in all cases: 20 μM internally quenched peptide probe, 20 nM protease, 37° C.
[1] = molecular target: MMP9 (Homo sapiens, UniProt P14780)
Sequence of MMP9 (P14780 94-707): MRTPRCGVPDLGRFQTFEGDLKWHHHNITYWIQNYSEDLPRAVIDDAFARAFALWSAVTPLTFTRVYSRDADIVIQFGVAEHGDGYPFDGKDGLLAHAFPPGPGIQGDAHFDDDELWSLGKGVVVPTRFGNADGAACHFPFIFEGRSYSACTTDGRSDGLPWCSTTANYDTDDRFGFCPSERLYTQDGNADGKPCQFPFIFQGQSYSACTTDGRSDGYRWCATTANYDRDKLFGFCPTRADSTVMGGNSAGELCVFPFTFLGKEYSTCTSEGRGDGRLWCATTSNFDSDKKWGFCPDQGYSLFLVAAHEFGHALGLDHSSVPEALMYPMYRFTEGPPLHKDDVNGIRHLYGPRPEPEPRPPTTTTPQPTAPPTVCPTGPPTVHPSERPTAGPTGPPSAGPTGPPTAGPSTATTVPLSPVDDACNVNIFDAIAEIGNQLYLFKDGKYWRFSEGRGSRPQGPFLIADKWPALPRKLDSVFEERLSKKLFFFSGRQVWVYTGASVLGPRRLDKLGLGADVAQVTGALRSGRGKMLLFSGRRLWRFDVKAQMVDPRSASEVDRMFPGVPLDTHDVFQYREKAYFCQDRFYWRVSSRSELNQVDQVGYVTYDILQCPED
Text: (§1) The study provided herein evaluated the cleavability kinetics (i.e., pM/s and kcat/KM (M^−1s^−1)) of CMs with matrix metalloprotease (MMP) 2 (MMP2), MMP9, and MMP14. The CM AIALY (SEQ ID NO: 5) was presented in an internally quenched peptide probe format, rather than included in an activatable antibody format. In the internally quenched probe, the CM sequence was positioned between a 7-methoxycoumarin-4-acetyl (MCA) fluorophore and a 2,4-dinitrophenyl (DNP) quencher such that cleavage of the CM sequence produces a fluorescence signal. The probe was of the following design: (MCA)-[…](DNP)-D-Arg (SEQ ID NO: 160). The cleavage rates (pM/s) were measured using 20 μM internally quenched peptide probe and 20 nM MMP2, MMP9, or MMP14. Cleavability kinetics (i.e., pM/s and kcat/KM (M^−1s^−1)) were determined in 96- or 384-well plate format at 37° C. in the following buffers: 50 mM Tris-HCl (pH 7.5), 10 mM CaCl2), 150 mM NaCl, 0.05% (w/v) Brij-35 for MMP2 and MMP9 or 50 mM HEPES (pH 6.8), 10 mM CaCl2), 0.5 mM MgCl2, 0.05% (w/v) Brij-35 for MMP14. Cleavability kinetics were determined on an Infinite 200 PRO (Tecan) multimode plate reader using a fluorescence excitation wavelength of 320 nm and an emission wavelength of 405 nm.

[2] = molecular target: T1, MMP2 (Homo sapiens, UniProt P08253)
T1 sequence (P08253 110-660): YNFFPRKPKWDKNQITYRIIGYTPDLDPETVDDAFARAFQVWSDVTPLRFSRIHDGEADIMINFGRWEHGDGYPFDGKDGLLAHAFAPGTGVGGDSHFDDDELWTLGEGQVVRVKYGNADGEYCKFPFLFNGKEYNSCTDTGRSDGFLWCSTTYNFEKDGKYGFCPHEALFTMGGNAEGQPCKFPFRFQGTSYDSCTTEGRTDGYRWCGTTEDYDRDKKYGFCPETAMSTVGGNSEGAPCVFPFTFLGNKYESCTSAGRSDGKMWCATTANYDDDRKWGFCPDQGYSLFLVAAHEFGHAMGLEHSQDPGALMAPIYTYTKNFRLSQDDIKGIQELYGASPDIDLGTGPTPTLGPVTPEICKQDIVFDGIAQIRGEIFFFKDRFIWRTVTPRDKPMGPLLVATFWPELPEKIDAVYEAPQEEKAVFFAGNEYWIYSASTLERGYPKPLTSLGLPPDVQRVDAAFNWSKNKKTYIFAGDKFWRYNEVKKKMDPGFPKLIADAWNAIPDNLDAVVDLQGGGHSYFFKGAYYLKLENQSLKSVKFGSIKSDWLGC
Text: as §1

[3] = molecular target: MMP14 (Homo sapiens, UniProt P50281)
Text: as §1

Substance: (MCA)-Gly-Ser-Ala-Ile-Ala-Leu-Tyr-Gly-Gly-Ser-Lys (DNP)-D-Arg (Mca-GSAIALYGGSK(Dnp)[dR])
- Probe Cleavage (pM/s) MMP9 [1]: 87.7 pM/s
- Probe Cleavage (pM/s) MMP2 [2]: 135 pM/s
- Probe Cleavage (pM/s) MMP14 [3]: 145 pM/s
